± gives the uncertainty stated by the source.
B1: Homeobox protein cut-like 1, residues 941 to 1008; numbered along this chain, P39880 (parent)
chain: QEVDTIELTRQVKEKLAKNGICQRIFGEKVLGLSQGSVSDMLSRPKPWSKLTQKGREPFIRMQLWLNG

Variants of: B1
Test: abundance fitness (aPCA) (normalised: wild type 0, dead -1); higher = more abundant; growth selection in yeast, the domain comes from the species named
Conditions: Homo sapiens

Variant	abundance fitness
P47H	-0.133 ± 0.11
P47V	-0.079 ± 0.068
P47M	-0.12 ± 0.08
P47A	-0.084 ± 0.081
P47F	-0.012 ± 0.12
P47W	0.056 ± 0.055
Q35V	0 ± 0.049
Q35D	0.066 ± 0.11
Q35W	0.064 ± 0.076
Q35S	0.034 ± 0.062
L51E	-0.929 ± 0.093
L51V	-0.394 ± 0.059
L51C	-0.439 ± 0.09
L51M	-0.125 ± 0.095
L51S	-0.92 ± 0.078
N19I	0.075 ± 0.12
N19W	-0.234 ± 0.082
N19A	-0.033 ± 0.053
N19F	0.07 ± 0.094
N19V	0.023 ± 0.05
N19T	0.034 ± 0.062
R24G	-0.224 ± 0.07
E2P	-0.206 ± 0.028
E2D	-0.283 ± 0.031

Variant	abundance fitness
E2N	-0.227 ± 0.031
E2I	-0.085 ± 0.031
E2R	-0.157 ± 0.027
E2G	-0.081 ± 0.027
E2M	-0.09 ± 0.029
Q23G	-0.28 ± 0.068
Q23H	-0.117 ± 0.13
Q23T	-0.104 ± 0.076
Q23W	-0.044 ± 0.076
Q23I	-0.537 ± 0.26
Q23V	-0.321 ± 0.069
Q23C	-0.281 ± 0.17
Q23M	-0.195 ± 0.096
Q23N	-0.133 ± 0.11
Q23A	-0.161 ± 0.082
V38L	-0.026 ± 0.057
V38W	0.063 ± 0.073
V38Y	0.027 ± 0.11
V38D	-0.188 ± 0.088
V38G	-0.263 ± 0.05
G32N	-0.204 ± 0.087
G32V	-0.645 ± 0.076
G32F	-0.313 ± 0.079
G32P	-0.21 ± 0.083

Variant	abundance fitness
G32Q	-0.138 ± 0.097
G68C	-0.258 ± 0.08
G68T	-0.402 ± 0.15
G68I	-0.662 ± 0.16
G68H	-0.455 ± 0.14
G68V	-0.565 ± 0.086
G68P	-0.576 ± 0.14
T5E	-0.204 ± 0.066
T5V	-0.383 ± 0.049
T5P	-0.354 ± 0.066
T5K	-0.121 ± 0.066
T5W	-0.176 ± 0.06
T5Q	-0.086 ± 0.065
T5I	-0.177 ± 0.11
G20H	-0.24 ± 0.12
G20I	-0.361 ± 0.11
G20L	-0.277 ± 0.053
G20F	-0.239 ± 0.11
G20K	0.046 ± 0.091
G20Y	-0.104 ± 0.14
G20D	-0.279 ± 0.11
G20Q	0.067 ± 0.081
M62L	-0.227 ± 0.058
M62G	-0.591 ± 0.066

Variant	abundance fitness
M62S	-0.619 ± 0.068
M62Y	-0.959 ± 0.13
M62T	-0.274 ± 0.082
L33Q	-0.232 ± 0.089
L33E	-0.262 ± 0.081
L33V	0.025 ± 0.046
L33M	-0.045 ± 0.068
L33F	-0.134 ± 0.067
L33A	-0.079 ± 0.06
L33T	-0.06 ± 0.061
Q53D	0.032 ± 0.081
Q53G	-0.132 ± 0.054
Q53Y	-0.27 ± 0.1
Q63F	-0.258 ± 0.099
Q63A	-0.268 ± 0.051
Q63R	0.012 ± 0.054
Q63V	-0.262 ± 0.056
Q63P	-0.724 ± 0.091
W65T	-1.31 ± 0.17
W65Q	-1.24 ± 0.21
W65R	-0.76 ± 0.081
W65D	-0.994 ± 0.15
W65G	-1.01 ± 0.1
W65N	-1.45 ± 0.3

Variant	abundance fitness
W65K	-0.715 ± 0.088
F26K	-0.45 ± 0.078
F26L	-0.312 ± 0.051
T52K	-0.109 ± 0.1
T52N	-0.009 ± 0.095
T52P	-0.343 ± 0.079
T52Q	-0.22 ± 0.078
T52A	-0.033 ± 0.065
R10N	0.036 ± 0.097
R10A	-0.096 ± 0.063
R10W	-0.509 ± 0.067
R10Y	-0.306 ± 0.11
G36V	-0.084 ± 0.055
G36P	-0.055 ± 0.062
I25T	0.083 ± 0.08
I25G	-0.225 ± 0.049
I25H	0.073 ± 0.12
I25W	0.021 ± 0.068
I25Y	0.014 ± 0.086
I25Q	-0.073 ± 0.083
I25A	-0.002 ± 0.062
I6Y	-0.129 ± 0.081
I6V	-0.046 ± 0.061
I6L	-0.161 ± 0.045

Variant	abundance fitness
I6A	0.076 ± 0.062
I6K	0.089 ± 0.068
I6W	-0.368 ± 0.074
R44I	-0.189 ± 0.1
R44K	0.098 ± 0.094
R44N	0.054 ± 0.097
R44Y	-0.029 ± 0.099
R44F	-0.041 ± 0.09
R44C	-0.007 ± 0.078
V30G	0.111 ± 0.43
V30P	0.123 ± 0.4
E14T	-0.121 ± 0.076
E14H	-0.498 ± 0.23
T9P	-0.28 ± 0.068
L8R	-0.01 ± 0.055
L8K	0.04 ± 0.078
L8Q	-0.032 ± 0.075
Q1L	-0.218 ± 0.055
Q1C	-0.062 ± 0.13
Q1F	-0.088 ± 0.2
Q1A	0.167 ± 0.1
Q1S	0.045 ± 0.076
E7I	-0.565 ± 0.37
E7A	0.14 ± 0.47

Variant	abundance fitness
V3G	-0.154 ± 0.058
V3E	-0.037 ± 0.093
V3K	-0.136 ± 0.098
M41W	0.022 ± 0.064
M41D	-0.194 ± 0.1
M41S	-0.263 ± 0.062
M41F	0.003 ± 0.12
M41Y	-0.011 ± 0.096
M41N	-0.275 ± 0.097
M41C	0.009 ± 0.12
F59P	-0.833 ± 0.11
F59S	-0.995 ± 0.1
F59H	-1.18 ± 0.25
F59K	-0.954 ± 0.11
F59Y	-0.006 ± 0.092
S39R	0.007 ± 0.048
S39E	0.031 ± 0.07
S39T	0.003 ± 0.059
S39M	0.01 ± 0.052
S39G	0.019 ± 0.06
S39A	0.005 ± 0.056
S39D	-0.04 ± 0.098
P58K	-0.04 ± 0.073
P58L	0.109 ± 0.044

Variant	abundance fitness
P58T	0.052 ± 0.076
P58D	-0.13 ± 0.12
P58Y	-0.1 ± 0.083
R56Q	-0.287 ± 0.084
R56S	-0.598 ± 0.076
R56P	-1.06 ± 0.15
R56M	-0.238 ± 0.067
R56V	-0.39 ± 0.062
R56Y	-0.444 ± 0.11
R56L	-0.418 ± 0.061
R56I	-0.6 ± 0.091
R56C	-0.525 ± 0.11
R56D	-1.13 ± 0.22
R56K	-0.045 ± 0.1
K15L	-0.057 ± 0.063
K15I	-0.085 ± 0.14
K15A	-0.147 ± 0.11
K15W	-0.238 ± 0.083
K15D	-0.586 ± 0.13
K15Y	0.145 ± 0.096
W48R	-0.729 ± 0.059
W48P	-0.999 ± 0.13
W48N	-1.46 ± 0.26
W48G	-0.919 ± 0.084

Variant	abundance fitness
W48Q	-0.867 ± 0.14
W48E	-0.774 ± 0.12
L42P	-0.117 ± 0.066
L42S	-0.236 ± 0.048
L42R	-0.224 ± 0.052
L42I	-0.171 ± 0.091
L42G	-0.275 ± 0.053
L42Q	-0.376 ± 0.088
E28H	-0.197 ± 0.15
E28A	-0.036 ± 0.057
E28G	-0.072 ± 0.059
E28Y	-0.229 ± 0.11
K29G	-0.17 ± 0.063
K29L	-0.516 ± 0.051
K29S	-0.12 ± 0.051
K29V	-0.195 ± 0.061
K29I	-0.57 ± 0.22
I21W	0 ± 0.052
I21C	-0.419 ± 0.1
I21D	-0.559 ± 0.17
I21G	-0.473 ± 0.071
K13E	-0.208 ± 0.074
K13W	-0.459 ± 0.088
K13V	-0.392 ± 0.046

Variant	abundance fitness
K13H	-0.254 ± 0.098
K13N	-0.132 ± 0.097
K13S	-0.35 ± 0.056
L66Y	-0.762 ± 0.091
L66C	-0.499 ± 0.13
L66W	-0.35 ± 0.068
G55P	-0.517 ± 0.082
G55A	0.016 ± 0.054
P45W	-0.108 ± 0.072
P45E	-0.526 ± 0.13
P45N	-0.227 ± 0.097
P45S	-0.063 ± 0.057
P45F	-0.161 ± 0.073
P45M	-0.269 ± 0.076
S37A	0.118 ± 0.061
S37I	-0.076 ± 0.089
S37F	-0.014 ± 0.095
S37R	-0.099 ± 0.05
R61I	-0.706 ± 0.11
R61A	-0.183 ± 0.061
R61P	-0.788 ± 0.096
R61M	-0.308 ± 0.063
R61V	-0.487 ± 0.066
R61F	-0.991 ± 0.18

Variant	abundance fitness
R61H	-0.393 ± 0.094
L64R	0.103 ± 0.055
L64H	-0.137 ± 0.12
L64Y	0.005 ± 0.1
N67K	0.045 ± 0.068
N67H	-0.128 ± 0.092
N67T	-0.041 ± 0.07
K54A	0.011 ± 0.061
K54Q	-0.107 ± 0.076
K54G	-0.223 ± 0.064
K54R	-0.074 ± 0.048
K54C	-0.317 ± 0.074
K46F	-0.227 ± 0.13
K46M	-0.15 ± 0.059
K46R	-0.099 ± 0.048
L31F	-0.11 ± 0.091
L31M	-0.191 ± 0.068
L31H	-0.313 ± 0.1
L31C	-0.255 ± 0.098
L31V	-0.242 ± 0.049
L31G	-0.256 ± 0.057
L31A	-0.273 ± 0.051
L31P	-0.233 ± 0.073
K18E	0 ± 0.071

Variant	abundance fitness
K18V	-0.184 ± 0.05
K18I	-0.085 ± 0.12
S43M	0.079 ± 0.078
S43H	0.049 ± 0.1
S43E	0.014 ± 0.077
S43L	-0.139 ± 0.048
S43F	-0.373 ± 0.083
S43W	-0.407 ± 0.072
S43I	-0.187 ± 0.11
K50Q	0.028 ± 0.071
V12N	-0.28 ± 0.11
V12H	-0.142 ± 0.11
V12D	-0.049 ± 0.079
V12I	-0.338 ± 0.074
V12Y	-0.175 ± 0.089
A17K	0.033 ± 0.091
A17Y	-0.214 ± 0.12
A17L	-0.148 ± 0.05
A17E	-0.066 ± 0.073
A17R	-0.011 ± 0.052
A17G	-0.205 ± 0.049
D40C	-0.209 ± 0.093
D40Y	-0.212 ± 0.061
D40E	0.044 ± 0.065

Variant	abundance fitness
E57N	-0.055 ± 0.11
E57R	-0.223 ± 0.054
E57P	-0.744 ± 0.083
E57A	-0.046 ± 0.074
E57W	-0.148 ± 0.081
Q11D	-0.298 ± 0.096
Q11V	-0.274 ± 0.057
Q11P	-0.092 ± 0.077
Q11T	-0.142 ± 0.061
Q11C	-0.323 ± 0.064
Q11I	-0.308 ± 0.099
S49P	-0.231 ± 0.066
S49W	-0.198 ± 0.071
S49Y	-0.255 ± 0.077
D4N	-0.097 ± 0.067
D4Q	-0.328 ± 0.061
D4Y	-0.43 ± 0.074
D4H	-0.346 ± 0.077
I60T	-0.008 ± 0.079
I60C	-0.139 ± 0.12
I60M	-0.054 ± 0.063
I60L	-0.015 ± 0.052
I60W	-0.334 ± 0.075
I60G	-0.383 ± 0.067

Variant	abundance fitness
I60P	-0.911 ± 0.17
I60S	-0.141 ± 0.062
I60F	-0.205 ± 0.12
I60Q	-0.142 ± 0.084
G27M	-0.208 ± 0.071
G27L	-0.12 ± 0.056
G27I	-0.067 ± 0.11
G27D	-0.545 ± 0.094
G27W	-0.569 ± 0.099
G27Y	-0.144 ± 0.11
G27T	-0.201 ± 0.067
L16N	-0.217 ± 0.15
L16H	0.009 ± 0.099
L16T	0.023 ± 0.077
L16M	0.107 ± 0.071
S34G	-0.132 ± 0.056
S34Y	-0.108 ± 0.078
S34D	-0.046 ± 0.1
C22H	-0.006 ± 0.11
C22K	-0.229 ± 0.084
C22R	-0.16 ± 0.048
C22T	0.02 ± 0.062

— the Human Domainome abundance scans (Beltran et al. 2025)
